Article PMC3418412

Assays:
purified Hsp90-Y313E = purified Hsp90-Y313E (UniProt P07900)
purified wild type Hsp90 = purified wild type Hsp90 (UniProt P07900)

Kd (purified Hsp90-Y313E): 3.7 µM
Kd (purified wild type Hsp90): 13 µM
Substance: purified AHA1 protein (from UniProt O95433 1-338) (natural protein)
